Measurements taken from patent US7605150 (Stanford University, dated 2009).
*1 amine or outer side, *2 acyl side, *3 side chain or, on linkers, in order; H or OH if unused. Where no end group is shown, it is not given here. [ ]: non-standard residue; d: D form. Aci = acivicin, (2S)-amino[(5S)-3-chloro-4,5-dihydroisoxazol-5-yl]acetic acid, O=C([C@@H](N[*:1])[C@@H]1CC(Cl)=NO1)[*:2]; DON = [N-]=[N+]=CC(=O)CC[C@H](N)C(=O)O

Columns and labels:
[1] = molecular target: T1, recombinant human tissue transglutaminase (human, UniProt P21980 1-687, limits assumed); test: time-dependent inactivation of tTG (9 uM) by 0-600 uM inhibitor; residual activity by glutamate dehydrogenase-coupled assay at 340 nm; double-reciprocal plot
T1 construct: also called tTGase; tTG
T1 sequence (looked up): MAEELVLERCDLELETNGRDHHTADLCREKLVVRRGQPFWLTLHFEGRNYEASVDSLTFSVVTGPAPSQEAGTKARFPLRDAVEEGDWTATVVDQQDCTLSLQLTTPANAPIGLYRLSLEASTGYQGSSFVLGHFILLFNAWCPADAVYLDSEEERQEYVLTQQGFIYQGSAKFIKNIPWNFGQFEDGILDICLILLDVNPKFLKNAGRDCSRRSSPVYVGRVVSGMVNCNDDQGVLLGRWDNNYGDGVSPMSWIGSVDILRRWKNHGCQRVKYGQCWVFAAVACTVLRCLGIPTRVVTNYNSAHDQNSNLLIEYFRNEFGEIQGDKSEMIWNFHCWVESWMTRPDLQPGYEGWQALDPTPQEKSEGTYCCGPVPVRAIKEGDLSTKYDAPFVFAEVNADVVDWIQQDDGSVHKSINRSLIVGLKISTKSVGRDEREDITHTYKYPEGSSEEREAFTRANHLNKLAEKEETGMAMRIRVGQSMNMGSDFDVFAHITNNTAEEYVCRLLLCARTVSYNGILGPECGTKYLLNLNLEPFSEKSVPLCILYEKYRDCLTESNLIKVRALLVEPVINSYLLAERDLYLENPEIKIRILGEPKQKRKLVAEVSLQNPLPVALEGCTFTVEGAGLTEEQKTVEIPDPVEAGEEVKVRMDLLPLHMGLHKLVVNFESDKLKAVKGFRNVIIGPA

[2] = molecular target: T1, recombinant human tissue …; test: time-dependent inactivation of tTG; residual activity by glutamate dehydrogenase-coupled assay at 340 nm; double-reciprocal plot
Ac-PQPQLPF-NH2 = molecular target: T2, Ac-PQPQLPF-NH2
T2 chain: PQPQLPF

PQPQLPY = molecular target: T3, PQPQLPY
T3 chain: PQPQLPY

B1: Pro-Gln-Pro-Aci-Leu-Pro-Tyr (peptide)
peptide: PQP[Aci]LPY
notes: Free termini; also called PQPAciLPY; PQP-X-LPY with X = Aci
- Ki [1]: 780 µM

B2: Ac-Pro-Gln-Pro-Don-Leu-Pro-Phe-NH2 (peptide)
peptide: Ac-PQP[DON]LPF-NH2
SMILES: CC(=O)N1CCC[C@H]1C(=O)N[C@@H](CCC(N)=O)C(=O)N1CCC[C@H]1C(=O)N[C@@H](CCC(=O)C=[N+]=[N-])C(=O)N[C@@H](CC(C)C)C(=O)N1CCC[C@H]1C(=O)N[C@@H](Cc1ccccc1)C(N)=O
notes: here X = DON; also called Ac-PQP-X-LPF-NH2 with X = DON; compound 41
- Ki [2]: 0.07 µM

B3: recombinant human tissue transglutaminase (protein)
chain: MAEELVLERCDLELETNGRDHHTADLCREKLVVRRGQPFWLTLHFEGRNYEASVDSLTFSVVTGPAPSQEAGTKARFPLRDAVEEGDWTATVVDQQDCTLSLQLTTPANAPIGLYRLSLEASTGYQGSSFVLGHFILLFNAWCPADAVYLDSEEERQEYVLTQQGFIYQGSAKFIKNIPWNFGQFEDGILDICLILLDVNPKFLKNAGRDCSRRSSPVYVGRVVSGMVNCNDDQGVLLGRWDNNYGDGVSPMSWIGSVDILRRWKNHGCQRVKYGQCWVFAAVACTVLRCLGIPTRVVTNYNSAHDQNSNLLIEYFRNEFGEIQGDKSEMIWNFHCWVESWMTRPDLQPGYEGWQALDPTPQEKSEGTYCCGPVPVRAIKEGDLSTKYDAPFVFAEVNADVVDWIQQDDGSVHKSINRSLIVGLKISTKSVGRDEREDITHTYKYPEGSSEEREAFTRANHLNKLAEKEETGMAMRIRVGQSMNMGSDFDVFAHITNNTAEEYVCRLLLCARTVSYNGILGPECGTKYLLNLNLEPFSEKSVPLCILYEKYRDCLTESNLIKVRALLVEPVINSYLLAERDLYLENPEIKIRILGEPKQKRKLVAEVSLQNPLPVALEGCTFTVEGAGLTEEQKTVEIPDPVEAGEEVKVRMDLLPLHMGLHKLVVNFESDKLKAVKGFRNVIIGPA
- KM (Ac-PQPQLPF-NH2): 400 µM
- kcat (Ac-PQPQLPF-NH2): 0.667 s⁻¹
- kcat/KM (Ac-PQPQLPF-NH2): 97000 min^-1M^-1
- KM (PQPQLPY): 300 µM
- kcat (PQPQLPY): 0.467 s⁻¹
